According to US20210292392A1 (TSB THERAPEUTICS BEIJING, published 2021):

target: receptor-binding domain (RBD) of the spike protein of SARS-CoV-2 (SARS-CoV-2, UniProt P0DTC2 319-541); test: not given

Row | Binder | Kd
1 | P5A-1D2 (antibody, human IgG1, lambda, V domains shown) VH: EVQLVESGGGLIQPGGSLRLSCAASGFIVSSNYMSWVRQAPGKGLEWVSIIYSGGSTYYADSVKGRFTISRDNSNNTLYLQMNSLRAEDTAVYYCARALQVGATSDYFDYWGQGTLVTVSS VL: QSVLTQPPSVSGAPGQRVTISCTGSSSNIGAGYDVHWYQQLPGTAPKLLIYGNSNRPSGVPDRFSGSKSGTSASLAITGLQAEDETDYYCQSCDSSLSVVVFGGGTKLTVLG | 14 nM
2 | P5A-3C12 (antibody, human IgG1, kappa, V domains shown) VH: QITLKESGPTLVKPTQTLTLTCTFSGFSLSTSGVGVGWIRQPPGKALEWLALIYWDDDKRYSPSLKSRLTITKDTSKNQVVLTMTNMDPVDTATYYCAHSLFLTVGYSSSWSPFDYWGQGTLVTVSS VL: not shown | 8.47 nM
3 | P5A-1B8 (antibody, human IgG1, kappa, V domains shown) VH: EVQLVESGGGLIQPGGSLRLSCAASGFTVSSNYMSWVRQAPGKGLEWVSVIYPGGSTFYADSVKGRFTISRDNSKNTLYLQMNSLRAEDTAVYYCARETLAFDYWGQGTLVTVSS VL: DIQLTQSPSFLSASVGDRVTITCRASQGISSYLAWYQQKPGKAPKLLIYAASTLQSGVPSRFSGSGSGTEFTLTISSLQPEDFATYYCQQLNSYPPAFGGGTKVEIKR | 4.28 nM
4 | P2B-1A10 (antibody, human IgG1, kappa, V domains shown) VH: EVQLVESGGGLIQPGGSLRLSCAASGFTVSSNYMSWVRQAPGKGLEWVSVIYSGGSTYYADSVKGRFTISRDNSKNTLYLQMNSLRAEDTAVYYCAREGPKSITGTAFDIWGQGTIVTVSS VL: DIQMTQSPSSLSASVGDRVTITCQASQDISNYFNWYQQKPGKAPKLLIYDASNLETGVPSRFSGSGSGTDFTFTISSLQPEDIATYYCQQYDNLPMYTFGQGTKLEIKR | 38.4 nM
5 | P5A-2G9 (antibody, human IgG1, lambda, V domains shown) VH: QVQLVESGGGVVQPGRSLRLSCAASGFTFSSYGMHWVRQAPGKGLEWVAVIWYDGSNKYYADSVKGRFTISRDNSKNTLYLQMNSLRAEDTAVYYCARWFHTGGYFDYWGQGTLVTVSS VL: QPVLTQPPSSSASPGESARLTCTLPSDINVSSYNIYWYQQKPGSPPRYLLYYYSDSDKGQGSGVPSRFSGSKDASANTGILLISGLQSEDEADYYCMIWPSNALYVFGTGTKVTVLG | 15.9 nM
6 | P5A-2G7 (antibody, human IgG1, lambda, V domains shown) VH: QVQLQESGPGLVKPSETLSLTCTVSGDSVSSGSYYWSWIRQPPGKGLEWIGYIYYSGSTNYNPSLKSRVTISVDTSKNQFSLKLSSVTAADTAVYYCARERCYYGSGRAPRCVWFDPWGQGTLVTVSS VL: QSALTQPASVSGSPGQSITISCTGTSSDVGGYNYVSWYQQHPGKAPKLMIYDVSNRPSGVSNRFSGSKSGNTASLTISGLQAEDEADYYCSSYTSSSTLVVFGGGTKLTVLG | 3.95 nM
7 | P5A-3C8 (antibody, human IgG1, kappa, V domains shown) VH: EVQLVESGGGLIQPGGSLRLSCAASGFTVSSNYMSWVRQAPGKGLEWVSFIYSGGSTYYADSVKGRFTISRDNSKNTLYLQMNSLRAEDTAVYYCARDLQEHGMDVWGQGTTVTVSS VL: DIQLTQSPSSLSASVGDRVTITCRASQGISSYLAWYQQKPGKAPKLLIYAASTLQSGVPSRFSGSGSGTDFTLTISSLQPEDFATYYCQHLNSYPPGYTFGQGTKLEIKR | 1.3 nM
8 | P22A-1D1 (antibody, human IgG1, kappa, V domains shown) VH: EVQLVESGGGLIQPGGSLRLSCAASGFTVSSNYMSWVRQAPGKGLEWVSVIYSGGSTYYADSVKGRFTISRDNSKNTLYLQMNSLRAEDTAVYYCARDRDYYGMDVWGQGTTVTVSS VL: DIQLTQSPSFLSASVGDRVTITCRASQGISSYLAWYQQKPGKAPKLLIYAASTLQSGVPSRFSGSGSGTEFTLTISSLQPEDFATYYCLHLNSYRTFGLGTKVEIKR | 5.79 nM

target: T1, full length spike (S) protein of SARS-CoV-2 (SARS-CoV-2, UniProt P0DTC2 14-1273); test: cell-based or functional assay

Row | Binder | IC50, pseudovirus neutralization | Neutralizing activity (%) Mean at 0.0228624 µg/ml | Neutralizing activity (%) Mean at 0.0685871 µg/ml | Neutralizing activity (%) Mean at 0.2057613 µg/ml | Neutralizing activity (%) Mean at 0.6172839 µg/ml | Neutralizing activity (%) Mean at 1.851852 µg/ml | Neutralizing activity (%) Mean at 5.555555 µg/ml | Neutralizing activity (%) Mean at 16.66667 µg/ml | Neutralizing activity (%) Mean at 50 µg/ml
9 | P2A-1A9 (antibody, V domains shown) VH: EVQLVESGGGLVQPGRSLRLSCAASGFTFDDYAMHWVRQVPGKGLEWVSGISWNGGIIGYADSVKGRFTISRDNAKTSLYLQMNSLRAEDTALYYCAKVAGRGDYDYYYGMDVWGQGTTVTVSS VL: QSVLTQPPSVSGAPGQRVTISCTGSSSNIGAGYDVHWYQQLPGTAPKLLIYGNNNRPSGVPDRFSGSKSGTSASLAITGLQAEDEADYYCQSYDSSLSGSVFGGGTKLTVLG | 26.3 µg/mL | 12.5% | 15.9% | 15.1% | 14.3% | 15.9% | 34.8% | 41.2% | 62.6%
10 | P2B-2G11 (antibody, V domains shown) VH: EVQLVESGGGLVQPGRSLRLSCAASGFTFDDYAMHWVRQAPGKGLEWVSGISWNGGIIGYADSVKGRFTISRDNAKTSLYLQMNSLKPEDTALYYCAKVAGRGDYDYYYGMDVWGQGTTVTVSS VL: QSVLTQPPSVSGAPGQRVTISCTGSSSNIGAGYDVHWYQQLPGTAPKLLIYGNNNRPSGVPDRFSGSKSGTSASLAITGLQAEDEADYYCQSYDSSLSGSVFGGGTKLTVLG | 34.8 µg/mL | 3.81% | 13.9% | 12.8% |  | 16% | 19% | 25.9% | 64.4%
11 | P2B-2G4 (antibody, V domains shown) VH: QVQLVESGGGVVQPGRSLRLSCAASGFTFSSYGMHWVRQAPGKGLEWVAVIWYDGSNKYYADSVKGRFTISRDNSKNTLYLQMNSLRAEDTAVYYCARGAAMVWLDYWGQGTLVTVSS VL: QSALTQPRSVSGSPGQSVTISCTGTSSDVGGYNYVSWYQQHPGKAPKLMIYDVSKRPSGVPDRFSGSKSGNTASLTISGLQAEDEADYYCCSYAGSYTFVVFGGGTKLTVLG | 5.11 µg/mL | -3.33% | -8.88% | 10.4% | 20.2% | 35.4% | 46.4% | 65.2% | 74.8%
12 | P2A-1B3 (antibody, V domains shown) VH: EVQLVESGGGLVQPGGSLRLSCVASGFSFNRYSMNWLRQTPRKGLEWLSYISASGNTIYYADSVRGRFTTSRDNAKNTLYLQMNSLRDDDTAVYFCARPAMVREGTYNWFDPWGQGTLVTVSS VL: EIVLTQSPGTLSLSPGERATLSCRASQSVSNDYLAWYQQKPGQAPRLLIYYASSRATGIPDRFSGSGSGTDFTLTISRLEPGDSAVYYCQQYGDSPPITFGQGTRLEIKR | 16.8 µg/mL | 11.5% | -0.545% | 10.2% | 23.3% | 22.1% | 37.2% | 43.6% | 74.9%

target: T1, full length spike (S) protein of …; test: cell-based or functional assay; remark: another data set of the same source

Row | Binder | IC50, pseudovirus neutralization
13 | P2B-1A1 (antibody, human IgG1, lambda, V domains shown) VH: QVQLQESGPGLVKPSETLSLTCTVSGGSISSYYWSWIRQPPGKGLEWIGYIYYSGSTNYNPSLKSRVTISVDTSKKQFSLKLSSVTAADTAVYYCARLERDWPLDAFDIWGQGTMVTVSS VL: QSALTQPASVSGSPGQSITISCTGTSSDVGGYNYVSWYQQHPGKAPKFMIYDVSKRPSGVSNRFSGSKSGNTASLTISGLQAEDEADYYCSSYTSNNTFAFGGGTKLTVLG | 0.687 µg/mL
